In assay [1] the target is GST fused to the C-terminal residues 200-294 of HMPV P (strain CAN97-83) (human metapneumovirus strain CAN97-83).
For assay [2], the target named is HMPV nucleoprotein N (strain NL/00/1), assembled and RNA-bound (N-RNA) (human metapneumovirus strain NL/00/1) (UniProt Q6WBA1). Briefly: cryo-EM structure; single-particle cryo-EM of recombinant N-RNA (1.0 mg/ml) in 25 mM Tris-HCl pH 8.0, 250 mM NaCl; 2D classification and 3D reconstruction of 10-mer, 11-mer and spiral particles, local refinement of an N-RNA dimer.

Assay [3] has the same target. Described as above. The source holds these as a separate data set.

“And” between values parts separate entries of the source, which are not always exact repeats. Identical values can stand only once. Like-named read-outs stand apart in the source and are kept apart here.

Turning to “HMPV N (strain CAN97-83) with a C-terminal 6xHis tag, L111E (natural protein)”, the HMPV polymerase activity, minigenome assay (Firefly luciferase) in BSRT7/5 cells, compared to wild-type; N and full-length P of strain NL99-1 from pCite plasmids (% of wild-type) in assay [1] was determined as 10.

For the substance “HMPV nucleoprotein N (strain NL/00/1), assembled and RNA-bound (N-RNA) (from UniProt Q6WBA1 1-394) (natural protein)”, the stoichiometry N in assay [2] was more than 12 protomers; in assay [3], 10 protomers and 11 protomers and 12 protomers.

In turn, “HMPV N (strain NL99-1, plasmid pN) L111A (natural protein)” came in with an HMPV polymerase activity, minigenome assay (Firefly luciferase) in BSRT7/5 cells, compared to wild-type; N and full-length P of strain NL99-1 from pCite plasmids (% of wild-type) in assay [1] of less than 50.

In the case of “HMPV N (strain NL99-1, plasmid pN) triple mutant with alanines in positions 100, 103 and 111 (natural protein)”, the HMPV polymerase activity, minigenome assay (Firefly luciferase) in BSRT7/5 cells, compared to wild-type; N and full-length P of strain NL99-1 from pCite plasmids (% of wild-type) in assay [1] came out at 30.

The record behind these values is article PMC10665349.
